Assay results: paper PMC9890229

What was measured:
[1] = target: Crc R90E,Y91F (Flag-tagged, from pME4510crc(R90E,Y91F)Flag) (Pseudomonas aeruginosa) (UniProt Q51380)
[2] = target: Pseudomonas aeruginosa Hfq (Pseudomonas aeruginosa) (UniProt Q9HUM0)
[3] = target: Hfq (Pseudomonas aeruginosa) (UniProt Q9HUM0); assay: EMSA; conditions: EMSA: 20 mM Tris-HCl pH 8.0, 40 mM NaCl, 10 mM KCl, 1 mM MgCl2; 200 nM RNA; 15 min at 37 C; 4% PAA gel in 1x TBE at 4 C, SYBR gold

| Substance | translational repression of the rbsB+13::lacZ reporter gene (β-galactosidase activity) in P. aeruginosa PAO1Δcrc [1] [fold] | de-repression of translation of the amiE+60::lacZ reporter gene (β-galactosidase activity) in P. aeruginosa PAO1Δcrc [2] [fold] | de-repression of translation of the estA+18::lacZ reporter gene (β-galactosidase activity) in P. aeruginosa PAO1Δcrc [2] [fold] | binding [3] |
| --- | --- | --- | --- | --- |
| Crc R90E,Y91F (Flag-tagged, from pME4510crc(R90E,Y91F)Flag) (from UniProt Q51380 1-259) (natural protein) | 2 | 7 | 2 |  |
| GGGCCUUUUUUCGUCCCGAAAAAAUAACAACAAGAGGUGAUAUCCAUGCGUCACGGCGAUAUUUCCAGCAGCAACGACACCGUCGGAGUGGCGGUGGUCAACUAC [amiE105] |  |  |  | binds |
| GGCUGAGGAGGCUUUACGACGGGCCCCGGGGCGCAUGCCGACGACGCGGCGGCCCGACAAUAAAAACAAAUCAUGGAGUAAGAGAAUGAUCAGAAUGGCGCUCAAGCCACUGGUAGCG [estA118] |  |  |  | binds |
| GGAACGCAAACGUUUGCGUCUGGAUAAUCUCCUGGAAAAGCCUCAAUACAACGAUAAGAAAAGCUGGAGGAUACACCAUGAAGCGGGUCGCUUCCCGGCGCCUGUUGGCU [rbsB110] |  |  |  | binds |
